# Test results reported in patent US20200317768A1 (published 2020).
# T1: Human latent myostatin (human, UniProt O14793 25-266; O14793 267-375)
# T1 construct: Biotinylated in the ELISAs; also called human myostatin latent form
# T1 sequence 1: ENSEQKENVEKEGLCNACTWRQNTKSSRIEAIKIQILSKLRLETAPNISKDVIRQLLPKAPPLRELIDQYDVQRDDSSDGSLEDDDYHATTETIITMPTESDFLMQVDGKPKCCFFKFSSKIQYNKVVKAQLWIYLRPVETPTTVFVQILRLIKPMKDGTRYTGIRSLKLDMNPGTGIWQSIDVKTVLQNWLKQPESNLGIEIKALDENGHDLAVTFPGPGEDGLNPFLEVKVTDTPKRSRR
# T1 sequence 2: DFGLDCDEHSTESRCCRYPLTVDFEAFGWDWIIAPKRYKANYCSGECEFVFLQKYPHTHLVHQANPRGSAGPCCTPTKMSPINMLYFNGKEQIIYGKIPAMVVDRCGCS
# T2: GST-hMSTN 61-160aa (human, UniProt O14793 61-160)
# T2 construct: As GST-hMSTN 1-100aa; also called fourth fragment; not shown: GST tag from the pGEX4.1 vector
# T2 sequence: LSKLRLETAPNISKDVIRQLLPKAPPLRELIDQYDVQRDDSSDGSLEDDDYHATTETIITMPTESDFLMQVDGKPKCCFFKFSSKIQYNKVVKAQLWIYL
# T3: GST-hMSTN 81-180aa (human, UniProt A1C2U3 81-180 (Pongo pygmaeus entry))
# T3 construct: As GST-hMSTN 1-100aa; also called fifth fragment; not shown: GST tag from the pGEX4.1 vector
# T3 sequence: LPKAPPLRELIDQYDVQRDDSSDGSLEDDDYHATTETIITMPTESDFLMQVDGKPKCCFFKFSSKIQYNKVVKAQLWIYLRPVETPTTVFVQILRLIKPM
# T4: GST-hMSTN 101-200aa (human, UniProt A1C2U3 101-200 (Pongo pygmaeus entry))
# T4 construct: As GST-hMSTN 1-100aa; also called sixth fragment; not shown: GST tag from the pGEX4.1 vector
# T4 sequence: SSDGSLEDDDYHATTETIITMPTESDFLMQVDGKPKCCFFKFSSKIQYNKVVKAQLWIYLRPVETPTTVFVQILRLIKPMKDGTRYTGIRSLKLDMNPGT
# T5: GST-hMSTN 121-220aa (human, UniProt A1C2U3 121-220 (Pongo pygmaeus entry))
# T5 construct: As GST-hMSTN 1-100aa; also called seventh fragment; not shown: GST tag from the pGEX4.1 vector
# T5 sequence: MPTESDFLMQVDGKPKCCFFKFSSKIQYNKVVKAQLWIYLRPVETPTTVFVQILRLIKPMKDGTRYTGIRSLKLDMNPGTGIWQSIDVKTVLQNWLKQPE
# T6: GST-hMSTN 141-241aa (human, UniProt A1C2U3 141-241 (Pongo pygmaeus entry))
# T6 construct: As GST-hMSTN 1-100aa; also called eighth fragment; not shown: GST tag from the pGEX4.1 vector
# T6 sequence: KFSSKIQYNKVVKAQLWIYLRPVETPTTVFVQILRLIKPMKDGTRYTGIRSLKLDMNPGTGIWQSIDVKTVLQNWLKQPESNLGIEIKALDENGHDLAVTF
# B1: Ab002 (M103205H001 / M103202L000) (antibody, human IgG1, kappa, V domains shown)
# VH: QVTLKESGPVLVKPTETLTLTCTVSGIDLSHYDISWVRQAPGKGLEWVGIISYAGSTYYASWAKGRLTISKDTSKNQVVLTMTNMDPVDTATYYCARGVPAYSTGGDLWGQGTLVTVSS
# VL: DIVMTQSPATLSLSPGERATLSCQSSQSVYDNNWLSWFQQKPGQPPKLLIYWASTLASGVPSRFSGSGSGTDFTLTISSLQPEDAATYYCAGGYGGGLYAFGQGTKVEIKR
# notes: Histidine-substituted variant of MS1032LO00-SG1
# B2: M103205H795-MY009/M103202L889-SK1 (antibody, human IgG1, kappa)
# heavy: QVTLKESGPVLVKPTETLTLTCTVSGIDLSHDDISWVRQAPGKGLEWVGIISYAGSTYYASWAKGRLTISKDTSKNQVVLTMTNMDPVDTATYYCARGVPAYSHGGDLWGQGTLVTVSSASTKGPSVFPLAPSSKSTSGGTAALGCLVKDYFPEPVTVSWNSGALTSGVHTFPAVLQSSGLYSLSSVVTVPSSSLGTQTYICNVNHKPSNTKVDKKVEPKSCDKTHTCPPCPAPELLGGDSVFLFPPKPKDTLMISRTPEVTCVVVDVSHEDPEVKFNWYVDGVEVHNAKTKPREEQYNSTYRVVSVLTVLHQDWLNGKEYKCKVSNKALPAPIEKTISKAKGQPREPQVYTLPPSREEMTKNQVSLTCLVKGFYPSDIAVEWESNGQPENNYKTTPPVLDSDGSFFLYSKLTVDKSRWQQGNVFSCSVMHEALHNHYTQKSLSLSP
# light: DIVMTQSPATLSLSPGERATLSCTSSQSVYHANWLSWFQQKPGQPPKLLIYWASTLAYGVPSRFSGSGSGTDFTLTISSLQPEDAATYYCAGGYGGGRYAFGQGTKVEIKRTVAAPSVFIFPPSDEQLKSGTASVVCLLNNFYPREAKVQWKVDNALQSGNSQESVTEQDSKDSTYSLSSTLTLSKADYEKHKVYACEVTHQGLSSPVTKSFNRGEC
# notes: SG1 with P238D (EU numbering); also called MS1032LO06-MY009; MS1032LO006-MY009
# B3: MST1572 (antibody, human IgG1, kappa, V domains shown)
# VH: QSVEESGGRLVTPGTPLTLTCTVSGFSLSSYAMSWVRQAPGKGLEWIGIIYGVGSTYYASWAKGRFTISKTSTTVDLKIASPTTEDTATYFCARDDYGWGYTNLWGPGTLVTVSS
# VL: QVLTQTPSSVSAAVGGTVTINCQSSQSVYNNNYLAWFQQKPGQPPKLLIYDASKLASGVPSRFKGSGSGTQFTLTISGVQCDDAATYYCQGSYYSSGWYRAFGGGTKVEIKR
# Experiments:
# [1] = target: T1, Human latent myostatin; assay: SPR (BIACORE), additional dissociation phase at pH5.8 after dissociation at pH7.4
# Method: (§1) Each amino acid in the CDRs was individually mutated to histidine using In-Fusion HD Cloning Kit (Clontech Inc, or Takara Bio company) according to the manufacturer's instructions. […] All histidine-substituted variants were evaluated by a modified BIACORE® assay as compared to that described above. Briefly, an additional dissociation phase at pH5.8 was integrated into the BIACORE® assay immediately after the dissociation phase at pH7.4. This is to assess the pH-dependent dissociation between antibody (Ab) and antigen (Ag) from the complexes formed at pH7.4 as opposed to the corresponding dissociation at pH5.8. The dissociation rate at pH5.8 buffer was determined by processing and fitting data using the Scrubber 2.0 (BioLogic Software) curve fitting software.
# (§2) Antibodies with a combination of these mutations in the CDRs were then generated.
# [2] = target: T1, Human latent myostatin; assay: SPR (BIACORE), additional dissociation phase at pH5.8 after dissociation at pH7.4, Scrubber 2.0 fit
# Method: as §1, §2
# [3] = target: T7, human FcγRIIIaV extracellular domain with C-terminal His-tag (human, UniProt P08637 17-208); assay: SPR (BIACORE T200/4000), antibody captured, FcγR as analyte, 25 C
# T7 construct: also called FcgRIIIaV; not shown: His-tag added to the C-terminus
# T7 sequence (P08637 17-208 F176V): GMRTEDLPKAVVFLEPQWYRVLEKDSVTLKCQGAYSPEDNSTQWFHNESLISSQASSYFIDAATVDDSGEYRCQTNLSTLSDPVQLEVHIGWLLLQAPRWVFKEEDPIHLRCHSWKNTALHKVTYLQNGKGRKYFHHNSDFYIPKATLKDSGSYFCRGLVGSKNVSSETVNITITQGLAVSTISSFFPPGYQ
# [4] = target: T8, cyno FcγRIIIaS extracellular domain with C-terminal His-tag (cynomolgus monkey, UniProt A3RFZ7 21-206 (rhesus entry)); assay: as above
# T8 construct: also called FcgRIIIaS; not shown: His-tag added to the C-terminus
# T8 sequence (A3RFZ7 21-206): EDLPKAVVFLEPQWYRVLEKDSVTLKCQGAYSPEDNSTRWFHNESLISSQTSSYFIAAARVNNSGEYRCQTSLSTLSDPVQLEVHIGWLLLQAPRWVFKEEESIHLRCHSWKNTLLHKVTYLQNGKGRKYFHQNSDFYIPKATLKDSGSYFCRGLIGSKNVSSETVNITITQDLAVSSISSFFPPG
# [5] = target: T2, GST-hMSTN 61-160aa; assay: Western blot on GST tagged fragments
# Text: (§3) Fragments of the N-terminal propeptide coding region of human latent myostatin were cloned into a pGEX4.1 vector so as to produce GST tagged propeptide fragments of 100 amino acid each, with 80 amino acid overlap (FIG. 22A). Protein expression was induced in transformed BL21 competent cells with Overnight Express Autoinduction System (Merck Millipore) and protein was extracted using the BUGBUSTER® protein extraction reagent (Novagen).
# [6] = target: T3, GST-hMSTN 81-180aa; assay: Western blot on GST tagged fragments
# Text: as §3
# [7] = target: T4, GST-hMSTN 101-200aa; assay: Western blot on GST tagged fragments
# Text: as §3
# [8] = target: T5, GST-hMSTN 121-220aa; assay: Western blot on GST tagged fragments
# Text: as §3
# [9] = target: T6, GST-hMSTN 141-241aa; assay: Western blot on GST tagged fragments
# Text: as §3
binder,measurement,setting,value
B1,fold faster dissociation rate at pH5.8 than the parental antibody Ab001,[1],> 200 fold
same,koff,[2],0.00609 s⁻¹
B2,binding result,[3],binds
same,binding result,[4],binds
B3,binding result,[5],no binding
same,binding result,[6],no binding
same,binding result,[7],no binding
same,binding result,[8],no binding
same,binding result,[9],no binding
